Measurements reported in patent publication US20140341931A1.

Key:
[1] = molecular target: recombinant sCD27 containing 6x his-Tag at the carboxyl terminus (human) (UniProt P26842); experiment: mock depletion on plate coated with control IgG, sCD27 ELISA of the supernatant
[2] = molecular target: High mobility group protein B1 (human) (UniProt P09429); experiment: control (background) lane of the PolyHis pull-down, no bait peptides detected, mass spectrometry
Myosin IIA (human) [3] = molecular target: Myosin IIA (human) (UniProt P35579); experiment: as above
Chain of Myosin IIA (human) (P35579 2-1960 limits assumed): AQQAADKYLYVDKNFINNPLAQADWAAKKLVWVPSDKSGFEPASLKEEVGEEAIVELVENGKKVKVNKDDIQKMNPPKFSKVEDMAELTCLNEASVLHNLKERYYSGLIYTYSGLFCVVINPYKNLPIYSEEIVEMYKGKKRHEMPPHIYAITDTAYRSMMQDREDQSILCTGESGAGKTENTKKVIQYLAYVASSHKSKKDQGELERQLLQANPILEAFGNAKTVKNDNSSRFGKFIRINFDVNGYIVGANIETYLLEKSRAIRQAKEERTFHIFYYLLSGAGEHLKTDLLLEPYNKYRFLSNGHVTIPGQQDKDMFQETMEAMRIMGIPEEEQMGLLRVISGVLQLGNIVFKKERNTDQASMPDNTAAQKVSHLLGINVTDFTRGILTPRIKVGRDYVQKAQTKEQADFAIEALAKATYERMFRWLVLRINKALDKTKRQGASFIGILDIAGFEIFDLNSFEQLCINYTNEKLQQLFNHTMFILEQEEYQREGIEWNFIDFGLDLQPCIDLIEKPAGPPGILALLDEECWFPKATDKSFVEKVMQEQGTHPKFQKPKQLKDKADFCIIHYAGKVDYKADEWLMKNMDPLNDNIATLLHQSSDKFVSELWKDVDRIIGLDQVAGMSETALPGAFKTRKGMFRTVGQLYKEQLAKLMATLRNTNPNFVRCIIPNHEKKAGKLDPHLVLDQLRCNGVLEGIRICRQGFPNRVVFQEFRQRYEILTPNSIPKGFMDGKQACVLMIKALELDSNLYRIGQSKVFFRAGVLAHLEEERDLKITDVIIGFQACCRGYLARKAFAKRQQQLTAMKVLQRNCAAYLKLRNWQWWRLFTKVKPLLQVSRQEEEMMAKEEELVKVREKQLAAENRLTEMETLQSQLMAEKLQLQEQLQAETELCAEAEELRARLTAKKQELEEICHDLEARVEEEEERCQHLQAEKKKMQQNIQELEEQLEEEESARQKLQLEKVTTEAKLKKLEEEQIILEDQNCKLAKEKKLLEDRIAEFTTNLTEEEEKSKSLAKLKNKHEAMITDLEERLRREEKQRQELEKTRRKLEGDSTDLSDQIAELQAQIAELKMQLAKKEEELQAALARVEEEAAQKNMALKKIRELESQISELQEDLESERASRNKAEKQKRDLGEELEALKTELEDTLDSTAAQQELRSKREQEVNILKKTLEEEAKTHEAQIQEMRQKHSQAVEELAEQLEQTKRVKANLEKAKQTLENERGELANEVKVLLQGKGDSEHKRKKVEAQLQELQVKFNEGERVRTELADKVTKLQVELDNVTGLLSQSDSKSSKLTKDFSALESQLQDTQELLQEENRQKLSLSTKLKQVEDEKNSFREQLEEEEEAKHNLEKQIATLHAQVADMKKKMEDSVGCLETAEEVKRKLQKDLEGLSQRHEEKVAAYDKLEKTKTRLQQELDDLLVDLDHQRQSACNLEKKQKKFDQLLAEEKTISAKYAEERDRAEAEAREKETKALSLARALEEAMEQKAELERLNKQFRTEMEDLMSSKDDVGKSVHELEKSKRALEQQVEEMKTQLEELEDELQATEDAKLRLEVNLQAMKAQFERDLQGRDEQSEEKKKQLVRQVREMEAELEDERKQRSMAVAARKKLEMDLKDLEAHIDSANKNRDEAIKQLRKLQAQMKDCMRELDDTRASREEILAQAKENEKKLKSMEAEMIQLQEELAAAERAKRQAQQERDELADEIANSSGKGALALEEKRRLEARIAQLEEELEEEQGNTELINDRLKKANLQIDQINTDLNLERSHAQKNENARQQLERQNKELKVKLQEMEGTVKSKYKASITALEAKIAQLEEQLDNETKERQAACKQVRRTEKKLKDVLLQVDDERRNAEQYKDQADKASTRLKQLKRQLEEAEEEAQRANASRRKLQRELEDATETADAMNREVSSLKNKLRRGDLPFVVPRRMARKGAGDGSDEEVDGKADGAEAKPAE

[4] = molecular target: High mobility group protein B1 (human) (UniProt P09429); experiment: PolyHis pull-down with sCD27-his as bait from lysate of stimulated PBMCs, SDS-PAGE, mass spectrometry
Myosin IIA (human) [5] = molecular target: Myosin IIA (human) (UniProt P35579); experiment: as above

Chain of High mobility group protein B1 (human) (P09429 whole entry): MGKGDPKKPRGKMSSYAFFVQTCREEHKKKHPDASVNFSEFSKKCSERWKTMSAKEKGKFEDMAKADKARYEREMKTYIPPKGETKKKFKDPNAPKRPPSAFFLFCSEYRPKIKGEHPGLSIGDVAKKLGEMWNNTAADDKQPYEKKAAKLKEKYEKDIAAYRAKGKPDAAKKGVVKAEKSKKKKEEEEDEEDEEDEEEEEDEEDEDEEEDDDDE

| sCD27 value left after depletion [1] | TPC (total peptide count) in Lane 4 (background) [2] | TPC (total peptide count) in Lane 4 (background) (Myosin IIA (human) [3]) | TPC (total peptide count) in Lane 2 (positive) [4] | TPC (total peptide count) in Lane 2 (positive) (Myosin IIA (human) [5]) | Substance |
| --- | --- | --- | --- | --- | --- |
| 1.4 ng/mL |  |  |  |  | IgG control (R&D Systems Inc.) (antibody) |
|  | 5 peptides | 14 peptides | 44 peptides | 79 peptides | recombinant sCD27 containing 6x his-Tag at the carboxyl terminus (from UniProt P26842 20-189) (receptor) |
